Test results as given in patent US11787839B2, “Targeting α2δ-1-bound glutamate receptors for treating diseases and disorders” (Board of Regents, The University of Texas System, priority 2017, dated 2023).

Columns and labels:
[1] = target: T1, α2δ-1-Cav2.2 association (Mus musculus, UniProt O08532+O55017); experiment: Co-IP of α2δ-1 and Cav2.2 in mouse brain slices subjected to OGD; assay type: cell-based; conditions: 1 μM for 30 min
T1 construct: from tissue; host or cells: mouse brain slices subjected to OGD, membrane extracts
T1 sequence (O08532 25-956 limits assumed): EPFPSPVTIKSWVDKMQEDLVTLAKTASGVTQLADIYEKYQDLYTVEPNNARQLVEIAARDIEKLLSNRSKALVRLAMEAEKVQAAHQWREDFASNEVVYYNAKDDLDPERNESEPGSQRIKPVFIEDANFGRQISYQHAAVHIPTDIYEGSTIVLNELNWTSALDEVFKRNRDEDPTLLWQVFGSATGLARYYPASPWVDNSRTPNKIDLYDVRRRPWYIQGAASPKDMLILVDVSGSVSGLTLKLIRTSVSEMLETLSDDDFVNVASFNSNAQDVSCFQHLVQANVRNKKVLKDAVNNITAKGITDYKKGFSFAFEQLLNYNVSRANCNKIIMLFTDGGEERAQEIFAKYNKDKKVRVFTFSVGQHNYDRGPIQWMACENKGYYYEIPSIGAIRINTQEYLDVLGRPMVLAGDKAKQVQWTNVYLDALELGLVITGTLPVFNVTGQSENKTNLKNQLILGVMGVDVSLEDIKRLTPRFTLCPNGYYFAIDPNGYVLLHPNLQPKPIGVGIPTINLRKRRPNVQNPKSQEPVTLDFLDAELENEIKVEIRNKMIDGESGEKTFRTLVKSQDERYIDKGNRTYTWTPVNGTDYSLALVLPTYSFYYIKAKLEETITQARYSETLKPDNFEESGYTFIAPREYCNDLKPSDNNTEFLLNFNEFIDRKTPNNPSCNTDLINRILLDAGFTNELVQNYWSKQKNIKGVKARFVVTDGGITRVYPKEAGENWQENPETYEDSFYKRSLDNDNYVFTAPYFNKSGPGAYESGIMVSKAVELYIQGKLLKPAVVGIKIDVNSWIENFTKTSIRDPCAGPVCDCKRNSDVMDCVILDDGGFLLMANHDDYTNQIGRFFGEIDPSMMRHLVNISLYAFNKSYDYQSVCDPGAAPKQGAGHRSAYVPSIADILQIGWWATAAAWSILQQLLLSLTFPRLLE
T1 sequence (O55017 whole entry): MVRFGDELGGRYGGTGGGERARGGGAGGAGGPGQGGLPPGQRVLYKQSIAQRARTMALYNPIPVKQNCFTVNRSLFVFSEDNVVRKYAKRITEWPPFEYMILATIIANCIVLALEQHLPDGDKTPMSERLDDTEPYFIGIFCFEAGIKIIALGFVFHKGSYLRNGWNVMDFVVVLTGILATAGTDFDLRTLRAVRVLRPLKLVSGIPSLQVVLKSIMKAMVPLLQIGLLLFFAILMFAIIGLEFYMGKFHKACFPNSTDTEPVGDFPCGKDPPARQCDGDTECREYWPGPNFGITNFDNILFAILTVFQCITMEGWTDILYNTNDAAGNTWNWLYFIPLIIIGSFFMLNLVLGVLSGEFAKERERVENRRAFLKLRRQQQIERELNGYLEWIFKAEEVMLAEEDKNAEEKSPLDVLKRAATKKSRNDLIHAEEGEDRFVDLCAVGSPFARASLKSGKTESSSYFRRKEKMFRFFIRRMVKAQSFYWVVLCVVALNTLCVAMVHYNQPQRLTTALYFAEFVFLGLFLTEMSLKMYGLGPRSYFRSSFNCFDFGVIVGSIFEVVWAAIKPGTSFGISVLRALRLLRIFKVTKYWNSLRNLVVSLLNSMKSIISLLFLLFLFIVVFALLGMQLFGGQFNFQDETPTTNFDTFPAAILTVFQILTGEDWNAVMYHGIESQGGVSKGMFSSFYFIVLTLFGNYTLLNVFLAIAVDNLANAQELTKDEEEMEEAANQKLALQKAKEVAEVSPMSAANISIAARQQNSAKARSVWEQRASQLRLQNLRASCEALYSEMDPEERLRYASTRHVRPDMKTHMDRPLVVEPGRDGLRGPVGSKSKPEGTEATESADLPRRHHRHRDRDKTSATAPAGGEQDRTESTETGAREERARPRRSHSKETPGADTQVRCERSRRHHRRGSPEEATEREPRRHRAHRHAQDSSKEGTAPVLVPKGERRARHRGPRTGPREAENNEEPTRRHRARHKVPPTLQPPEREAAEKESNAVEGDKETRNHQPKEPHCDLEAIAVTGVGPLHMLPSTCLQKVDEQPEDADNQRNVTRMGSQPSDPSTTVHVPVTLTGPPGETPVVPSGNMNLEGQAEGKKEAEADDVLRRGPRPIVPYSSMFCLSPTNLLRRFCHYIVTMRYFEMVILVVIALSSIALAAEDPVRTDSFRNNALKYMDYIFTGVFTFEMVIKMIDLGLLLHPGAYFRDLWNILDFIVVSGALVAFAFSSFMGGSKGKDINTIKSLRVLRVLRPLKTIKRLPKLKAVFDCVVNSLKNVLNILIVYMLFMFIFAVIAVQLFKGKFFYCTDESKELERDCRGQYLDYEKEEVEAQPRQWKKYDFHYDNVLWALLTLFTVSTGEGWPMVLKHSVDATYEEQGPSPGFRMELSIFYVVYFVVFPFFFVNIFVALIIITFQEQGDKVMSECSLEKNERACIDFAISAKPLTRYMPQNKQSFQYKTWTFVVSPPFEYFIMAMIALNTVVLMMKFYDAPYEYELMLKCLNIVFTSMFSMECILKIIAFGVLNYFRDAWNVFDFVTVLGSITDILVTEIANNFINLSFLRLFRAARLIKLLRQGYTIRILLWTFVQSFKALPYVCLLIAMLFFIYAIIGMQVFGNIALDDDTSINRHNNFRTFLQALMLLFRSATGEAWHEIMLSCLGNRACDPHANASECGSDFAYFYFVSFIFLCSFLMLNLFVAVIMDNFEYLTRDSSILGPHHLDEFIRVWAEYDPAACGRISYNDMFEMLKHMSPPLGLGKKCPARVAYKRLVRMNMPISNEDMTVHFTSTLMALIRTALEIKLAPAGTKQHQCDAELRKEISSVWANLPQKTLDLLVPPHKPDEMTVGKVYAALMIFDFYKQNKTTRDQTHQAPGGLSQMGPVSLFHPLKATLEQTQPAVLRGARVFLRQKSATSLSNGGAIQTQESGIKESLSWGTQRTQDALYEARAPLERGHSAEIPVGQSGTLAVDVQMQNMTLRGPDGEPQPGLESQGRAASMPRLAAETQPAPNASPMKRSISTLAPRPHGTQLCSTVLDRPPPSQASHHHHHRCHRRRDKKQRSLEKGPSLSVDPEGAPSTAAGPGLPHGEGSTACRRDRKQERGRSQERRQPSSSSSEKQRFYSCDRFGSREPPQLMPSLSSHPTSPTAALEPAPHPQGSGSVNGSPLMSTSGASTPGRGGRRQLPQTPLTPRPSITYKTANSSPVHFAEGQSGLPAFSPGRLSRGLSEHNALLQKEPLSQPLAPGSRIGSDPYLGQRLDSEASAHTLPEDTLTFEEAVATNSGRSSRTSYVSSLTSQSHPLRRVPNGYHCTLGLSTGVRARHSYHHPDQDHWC
Experimental: FIGS. 22A-22D: α2δ-1-bound NMDARs contribute to brain injury and neurological deficit caused by MCAO in the brain. (A) Upper: Original gel images of coimmunoprecipitation (co-IP) analysis show the interaction between α2δ-1 and GluN1 in two samples from mouse brain tissues; Lower: Effect of α2δ-1Tat peptide (1 μM for 60 min) on the α2δ-1-GluN1 protein complex in mouse brain tissues (n=6 mice per group). (B) Representative gel images and quantification of co-IP analysis show the effect of OGD on the α2δ-1-GluN1 or α2δ-1-Cav2.2 association in mouse brain tissues (n=6 mice per group). IgG and input were used as negative and positive controls, respectively. (C) Original gel images and quantification of co-IP analysis show the effect of α2δ-1Tat peptide (P) and control peptide (C; both 1 μM for 30 min) on the α2δ-1-GluN1 or α2δ-1-Cav2.2 association in mouse brain slices subjected to OGD (O, n=6 mice per group). (D) Neurological severity scores (left) and representative TTC staining and quantification (right) of brain infarct volume in MCAO mice treated with α2δ-1Tat peptide or control peptide (both 200 μg/kg, i.p.) at 15 min before MCAO and immediately before reperfusion (n=8 mice per group). Data are shown as means±SEM. *p<0.05, **p<0.01 compared with the control peptide- or vehicle-treated group (paired Student's t-test for panels B-D and F; Mann-Whitney test for panel E). […]

[2] = system: paclitaxel-treated rats; experiment: Paclitaxel-induced pain hypersensitivity in rats; assay type: in vivo, rat; conditions: intrathecal 5 μg pregabalin, 1 μg peptides
Experimental: To induce neuropathic pain, rats and mice were intraperitoneally injected with paclitaxel (2 mg/kg; TEVA Pharmaceuticals, North Wales, Pa.) every 2 days for a total of 4 injections (days 1, 3, 5 and 7; total dose, 8 mg/kg), as described previously (Polomano et al., 2001). Animals in the control group were intraperitoneally injected with the vehicle (Cremophor EL/ethanol, 1:1) on the same 4 days. The presence of tactile allodynia was confirmed 10 to 12 days after drug treatment. Intrathecal catheters were implanted in some paclitaxel-treated rats during isoflurane-induced anesthesia. Briefly, a small puncture was made in the atlanto-occipital membrane of the cisterna magna and inserted a PE-10 catheter with the caudal tip reaching the lumbar enlargement of the spinal cord (Chen et al., 2014a; Xie et al., 2016).
Behavioral assessment of nociception: To measure tactile allodynia, mice or rats were individually placed on a mesh floor within a suspended chamber. […]
To quantify the mechanical nociceptive threshold in rats, the paw pressure (Randall-Selitto) test was conducted on the left hindpaw using an analgesiometer (Ugo Basile, Varese, Italy). […] When the rat withdrew its paw or vocalized, the pedal was immediately released, and the withdrawal threshold was recorded (Chen et al., 2014a). […]
To assess the thermal sensitivity of rats, the were placed individually on the glass surface of a thermal testing apparatus (IITC Life Sciences, Woodland Hills, Calif.). […] The paw withdrawal latency was recorded with a timer, and the hindpaw was tested twice to obtain an average time. […] After the threshold temperature was recorded, the mice were immediately removed from the plate. The heat threshold measurement was repeated 30 min later, and the average of the 2 recorded temperatures was considered as the heat threshold. The cold threshold was measured by cooling the plate from 30° C. at a rate of 6° C./min until nocifensive behaviors were observed. […]

YGRKKRRQRRRVSGLNPSLWSIFGLQFILLWLVSGSRHYLW (a2d1 peptide) [α2δ-1Tat peptide, 30-amino-acid peptide mimicking the C-terminal domain of α2δ-1 fused to the cell-penetrating peptide Tat]
α2δ-1-Cav2.2 association in brain tissues subjected to OGD [1]: had no effect | paclitaxel-induced pain hypersensitivity (tactile allodynia, mechanical and thermal hyperalgesia) [2]: markedly attenuated
